For test [1], the system named is leptin receptor deficient C57BLKS/J male mice (db/db mice). Nature of the test: Rotarod (motor control function) test after 28-day administration of GIP or GIP-binding anti-GIP antibody. In kind it is in vivo, mouse. The conditions noted are these: intraperitoneal daily for 28 days, GIP 5 nmol/kg, anti-GIP antibody 1 mg/kg, rotarod 6-28 rpm, compared to control group, FIG. 2. As for the experimental part:
Six-week-old leptin receptor deficient C57BLKS/J male mice (db/db mice, Oriental Yeast Co., Ltd.) were transferred (room temperature: 23° C., humidity: 55±10%, light period: 7:00 to 19:00) and were fed with food and water ad libitum. The food was CE-2 (CLEA Japan, Inc.), and the mice were acclimated for 2 weeks under the above-mentioned environment and were then used for testing.
Mouse-derived GIP (manufactured by AnaSpec, Inc.) was dissolved in physiological saline at a concentration of 500 nM to give a GIP solution. […]
Physiological saline (control group), the GIP solution (5 nmol/kg body weight). […] After administration for 28 days, the motor control function was measured by a rotarod test.
The motor control function (the accommodation ability reflecting balance ability and agility) was evaluated by measuring the capacity of staying on a rod rotating at various speeds using a rotarod (MK-600A, manufactured by Muromachi Kikai Co., Ltd.). Each mouse was placed on a stationary rod, and the number of times of falling was measured with a program of 6 rpm (1 min)→12 rpm (1 min)→16 rpm (1 min)→20 rpm (1 min)→24 rpm (1 min)→28 rpm (1 min). […]
A general note: Falling from the rotarod earlier than controls is read as motor impairment.

Test [2] addresses T1, PEGylated N-terminus 13 amino acids of inactive GIP (GIP(3-15)) (Homo sapiens, UniProt P09681).
T1 construct: made in house; host or cells: synthetic peptide (no expression host)
Briefly: Hybridoma screening ELISA with immobilized antigen (2). In kind it is binding. The following applies: hybridoma culture supernatant. As for the experimental part: (§1) Polyethylene glycol was added to N-terminus 15 amino acids of active GIP (GIP(1-15)) (PEGylation (polyethylene glycolation)), and keyhole limpet hemocyanin (KLH) was then chemically bonded thereto to produce KLH-linked PEGylated GIP (1-15) as an immunogen.
(§2) The reaction between the hybridoma culture supernatant and the antigen (1) and (2) for measurement was evaluated by ELISA using immobilized antigen (1) and (2), and hybridomas that are positive for the antigen (1) and negative for the antigen (2) were selected as anti-active GIP monoclonal antibody-producing hybridomas.
(§3) Antibody-producing hybridoma was cloned by culturing the hybridomas obtained above through a limiting dilution method to obtain single colonies, and single colony-forming wells were subjected to ELISA again to establish 9B9H5-B9 line, which produces an antibody that is positive for the antigen (1) and negative for the antigen (2) (WO 2016/104439).
A general note: An ELISA detects its analyte on a solid surface through an enzyme-linked reagent.

Test [3] concerns the target T2, PEGylated N-terminus 15 amino acids of active GIP (GIP(1-15)) (Homo sapiens, UniProt P09681).
T2 construct: PEGylated N-terminus 15 amino acids of active GIP (GIP(1-15)) was used as an antigen (1) for measurement; made in house; host or cells: synthetic peptide (no expression host)
Briefly: Hybridoma screening ELISA with immobilized antigen (1). Format: binding. The following applies: hybridoma culture supernatant. As for the experimental part:
as §1, §2, §3

Test [4] relates to aged C57BL/6J male mice (115-week-old). Nature of the test: Rotarod (motor control function) test in aged mice given anti-GIP antibody. Format: in vivo, mouse. The following applies: C57BL/6J mice, 0.5 mg/kg intraperitoneal once a week, tested at 115-week-old, FIG. 4. As for the experimental part: Four-week-old C57BL/6J male mice (CLEA Japan, Inc.) were transferred (room temperature: 23° C., humidity: 55±10%, light period: 7:00 to 19:00) and were fed with food (D12450K, Research Diets, Inc.) and water ad libitum for 111 weeks.
The anti-active GIP antibody produced in Production Example 1 was dissolved in physiological saline at a concentration of 0.05 mg/mL to give an anti-GIP antibody solution.
Physiological saline (control group) or the anti-GIP antibody solution (0.5 mg/kg body weight) (anti-GIP antibody administration group) was intraperitoneally administered to C57BL/6J mice (107-week-old) once a week (9:00 to 10:00 a.m.), 8 times (8 weeks) in total.
The motor control function (the accommodation ability reflecting balance ability and agility) was evaluated by measuring the capacity of staying on a rod rotating at various speeds using a rotarod (MK-600A, manufactured by Muromachi Kikai Co., Ltd.). The test was performed for 50-week-old mice (non-administration group) and 115-week-old mice (non-administration group, control group, and anti-GIP antibody administration group). Each mouse was placed on a stationary rod, and the number of times of falling was measured with a program of 6 rpm (1 min)→12 rpm (1 min)→16 rpm (1 min)→20 rpm (1 min)→24 rpm (1 min)→28 rpm (1 min).
The analysis results were shown as the average value (Ave.)±standard error (SE). […]

In the next test the target is T3, GIP(3-42) (Homo sapiens, UniProt P09681).
T3 sequence (P09681 54-93): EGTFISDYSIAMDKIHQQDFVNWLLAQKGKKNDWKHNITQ
Nature of the test: Sandwich ELISA, cross-reactivity with inactive GIP. Format: binding. The conditions noted are these: biotinylated antibody 1 μg/mL as detection antibody; GIP 8.2 to 2000 pg/mL; FIG. 1. As for the experimental part:
(§4) The reactivity between the monoclonal antibody prepared in Production Example 1 and active GIP was confirmed by ELISA. The amino group of the anti-active GIP monoclonal antibody was biotinylated with NH2 group biotinylation kit (manufactured by Dojindo Laboratories). ELISA was performed using the produced biotinylated anti-active GIP monoclonal antibody at 1 μg/mL instead of a detection antibody, GIP detection antibody (biotinylated anti-total GIP monoclonal antibody), included in Human (total) GIP ELISA kit (manufactured by EMD Millipore Corporation). A […] dilution series of GIP(1-42) or GIP(3-42) was prepared in 6 steps (8.2 to 2000 pg/mL) with a 2000 pg/mL solution as the highest concentration. By using an anti-total GIP monoclonal antibody (included in Human GIP (total) ELISA kit manufactured by EMD Millipore Corporation) as a capture antibody, the biotinylated anti-active GIP monoclonal antibody as a detection antibody, and a peroxidase-streptavidin conjugate for detection, sandwich ELISA was conducted to prepare a calibration curve with GIP concentration on the X-axis and 450 nm-590 nm absorbance on the Y-axis (FIG. 1).

A further test has as its target T4, GIP(1-42) (Homo sapiens, UniProt P09681).
T4 sequence (P09681 52-93): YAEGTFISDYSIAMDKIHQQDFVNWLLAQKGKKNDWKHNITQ
Nature of the test: Sandwich ELISA, reactivity with active GIP. In kind it is binding. The following applies: biotinylated antibody 1 μg/mL as detection antibody; GIP 8.2 to 2000 pg/mL; FIG. 1. As to the method: as §4

With “GIP: Mouse-derived GIP (manufactured by AnaSpec, Inc.), gastric inhibitory polypeptide, dissolved in physiological saline at 500 nM (YAEGTFISDYSIAMDKIRQQDFVNWLLAQRGKKSDWKHNITQ)”, in test [1], the “decrease in the motor control function (increase in the number of times of falling with an increase of the rotation speed)” value is “significant decrease”.

B1: monoclonal antibody prepared in Production Example 1: Mouse monoclonal anti-active GIP antibody produced by hybridoma 9B9H5-B9 line; H-chain variable region SEQ ID NO: 2, L-chain variable region SEQ … (antibody, listed as Mus musculus, V domains shown)
VH: QVQLQQPGAELVKPGASVKLSCKASGYTFTSFWMHWVIQRPGQGLEWIGEMNPSDGRTHFNEKFKTKATLTIDTSSNTAYMELNSLTSEDSAVYYCARRMEDWGQGTLVTVSA
VL: DIKMTQSPSSMYASLGERVTITCKASQDINSYLGWFQQKPGKSPKTLIYGANRLVDGVPSRFSGSGSGQDYSLTISSLEYDDMGIYYCLQYDEFPLTFGAGTKLELKR
In the case of B1, the “ELISA reaction with antigen (2)” value in test [2] is reported as “negative”. For the same molecule, the “ELISA reaction with antigen (1)” value in test [3] is “positive”. In addition, the “motor control function (number of times of falling) compared to non-administration and control 115-week-old groups” value in test [4] (8 times from 107-week-old, rotarod 6-28 rpm) was “improvement in the motor control function was observed”. The “motor control function relative to the non-administration (50-week-old) group” value in test [4] (8 times) is “equivalent to that of the non-administration (50-week-old) group”. For the same molecule, the “cross-reactivity with GIP(3-42) (450 nm-590 nm absorbance)” value with GIP(3-42) is “does not show cross-reactivity”. The “reactivity with GIP(1-42) (450 nm-590 nm absorbance)” value with GIP(1-42) is recorded as “capable of specifically detecting GIP(1-42)”.

These data come from patent US11319369B2, “Motor control function improving agent” (Kao Corporation, priority 2016, dated 2022).
